Experimental data: patent publication US20130273567A1, “Screening Method for Candidate Agonist Compounds for Adiponectin Receptor I” (priority 2010, published 2013)

Experiments:
[1] = Plasma adiponectin level after intravenous injection of adiponectin; type: in vivo; conditions: 30 μg per 10 g body weight intravenously through inferior vena cava catheter, mice
From the text: (§1) Mouse full-length adiponectin was generated as described in the following documents (Nature Med. 8, 1288-1295 (2002); Nature Med. 7, 941-946 (2001); Nature 423, 762-769 (2003)).

C2C12 myocytes = assay: Mitochondrial content assay in C2C12 myocytes (mtDNA copy number, MitoTracker Green); type: cell-based, mouse
Experimental: Mice used were from 8 to 10 week old at the time of the experiment. […] Induction of myogenic differentiation using C2C12 cells was carried out according to the method described in the following document (Nature Med. 8, 1288-1295 (2002)). By day 5, the cells had differentiated into multinucleated contracting myocytes. C2C12 myocytes were used after myogenic differentiation in all experiments.
(§2) The mouse C2C12 myoblasts were grown in 90% Dulbecco's modified high glucose Eagle's medium containing 10% (v/v) fetal bovine serum. When the cells reached 80% confluent, the myoblasts were induced to differentiate into myocytes by replacing the medium with a low serum differentiation medium (98% Dulbecco's modified high glucose Eagle's medium, 2.5% (v/v) horse serum). The medium was changed daily. The C2C12 cells were transfected by using Pofectamine 2000 (Invitrogen) and following the manufacturer's instructions.
Mitochondrial content assays were carried out as described in the following document (Cell Metab. 4, 75-87 (2006)), with slight modifications. Quantification of the mitochondrial content was conducted by using mtDNA and MitoTracker Green probe (Molecular Probes) according to the method as described in the following document (Obes. Res. 13, 574-581 (2005)). MitoTracker Green probe preferentially accumulates in mitochondria regardless of the mitochondrial membrane potential and provides an accurate assessment of mitochondrial mass. Cells were washed with PBS and after addition of 100 nM MitoTracker Green FM (Molecular Probes), incubated at 37° C. for 30 min. Cells were harvested by using trypsin/EDTA and resuspended in PBS. Fluorescence intensity was detected with excitation and emission wavelengths of 490 and 516 nm, respectively, and the values thus measured were corrected for total protein (mg/ml).

PGC-1α = PGC-1α acetylation (acetyl-lysine on immunoprecipitates) in C2C12 myocytes; type: cell-based, mouse; conditions: treatment for 2 hr
Experimental: as §2

CaMKI, HDAC5 = assay: Phosphorylation of CaMKI and HDAC5 in C2C12 myocytes (immunoblotting); type: cell-based, mouse; conditions: adiponectin 30 μg/ml, 0-20 min
Experimental: as §2

CaMKI = CaMKI phosphorylation in skeletal muscle in vivo; parameters: species or system mice; conditions: adiponectin 30 μg per 10 g body weight, 5 min; via AdipoR1
From the text: as §1

AdipoR1 [2] = biological target: T1, AdipoR1 (Mus musculus, UniProt Q91VH1); assay: Patch clamp test, whole-cell current of C2C12 myocytes; type: cell-based; parameters: endogenous in cells; host or cells: mouse C2C12 myocytes (differentiated from myoblasts); conditions: holding potential -60 mV, adiponectin 30 μg/ml 30 sec
T1 sequence (Q91VH1 1-375): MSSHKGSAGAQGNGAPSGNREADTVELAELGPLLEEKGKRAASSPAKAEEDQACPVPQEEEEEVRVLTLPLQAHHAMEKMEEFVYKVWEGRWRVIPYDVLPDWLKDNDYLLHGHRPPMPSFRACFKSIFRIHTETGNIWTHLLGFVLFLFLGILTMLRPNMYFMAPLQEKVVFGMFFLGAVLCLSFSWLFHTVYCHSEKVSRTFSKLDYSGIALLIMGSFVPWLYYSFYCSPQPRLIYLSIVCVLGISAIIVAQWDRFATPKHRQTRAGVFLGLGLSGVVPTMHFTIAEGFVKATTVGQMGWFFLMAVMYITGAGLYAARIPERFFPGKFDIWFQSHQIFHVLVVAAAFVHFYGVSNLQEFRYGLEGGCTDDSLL
Experimental: Whole-cell currents were amplified with a patch-clamp amplifier (CEZ-2400; Nihon Kohden) and were digitized with a PowerLab digitizer (AD Instruments). Ringer's solution was used for the extracellular solution. The electrode solution contained 140 mM KCl, 10 mM HEPES, 5 mM EGTA-2K, and 10 mM D-glucose (pH 7.4). The data were low-pass filtered at 2 kHz and were sampled at 20 kHz. Ligands dissolved in Ringer's solution were applied at least twice with a self-made pressure-ejection system and via a two-barreled glass capillary.

AMPK = AMPK phosphorylation in C2C12 myocytes (immunoblotting); type: cell-based, mouse; conditions: C2C12 myocytes, adiponectin 30 μg/ml
Experimental: as §2

AdipoR1 [3] = biological target: T1, AdipoR1; assay: Calcium imaging in skeletal muscle (soleus, fura-2); type: cell-based, mice; parameters: from tissue; host or cells: soleus muscle of control (Adipor1 lox/lox) and muscle-R1KO mice; conditions: adiponectin 30 μg/ml
Experimental: From 8-10 weeks-old mice, soleus muscles were dissected. Preparations were treated with 5 μM fura-2/AM in the presence of 0.1% Chremophore EL (Sigma) for 15 min. Fluorescence images were acquired using an inverted fluorescence microscopy (IX71, Olympus) equipped with a cooled charge-coupled device (CCD) camera (iXon, Andor) and a dry objective lens (10×, NA=0.3, Olympus) through a filter set consisting of a 327-353 nm and 369-391 nm excitation filter, a 409 nm dichroic mirror, and a 515-560 nm fluorescent filter. Ligands were supplied using the superfusing Ringer's solution (150 mM NaCl, 4 mM KCl, 2.0 mM CaCl2, 1.0 mM MgCl2, 30 mM D-glucose, 5 mM HEPES (pH 7.4)).

AdipoR1 [4] = biological target: T1, AdipoR1; assay: Calcium imaging in C2C12 myocytes (fura-2); type: cell-based; parameters: endogenous in cells; host or cells: mouse C2C12 myocytes (differentiated from myoblasts)
Experimental: C212 myocytes cultured on glass base dishes (IWAKI) were treated with 2.5 μM fura-2/AM for 30 min. Fluorescence was measured with an Aquacosmos Calcium Imaging system (Hamamatsu Photonics). Ligands were delivered through the superfusing Ringer's solution (140 mM NaCl, 5.6 mM KCl, 5 mM HEPES, 2.0 mM sodium pyruvate, 1.25 mM KH2PO4, 2.0 mM CaCl2, 2.0 mM MgCl2, 9.4 mM D-glucose (pH 7.4)). For the calcium chelating experiment, EGTA solution (140 mM NaCl, 5.6 mM KCl, 5 mM HEPES, 2.0 mM sodium pyruvate, 1.25 mM KH2PO4, 2.0 mM MgCl2, 5.0 mM EGTA-2Na, 9.4 mM D-glucose (pH 7.4) was used for the bath solution. Fura-2 fluorescence ratios were calibrated to calcium ion signals.

[5] = C2C12 myocytes incubated with 30 μg/ml adiponectin

B1: adiponectin: recombinant murine full-length adiponectin, internal ligand of adiponectin receptor 1 (protein, UniProt Q60994 1-247, looked up)
chain: MLLLQALLFLLILPSHAEDDVTTTEELAPALVPPPKGTCAGWMAGIPGHPGHNGTPGRDGRDGTPGEKGEKGDAGLLGPKGETGDVGMTGAEGPRGFPGTPGRKGEPGEAAYVYRSAFSVGLETRVTVPNVPIRFTKIFYNQQNHYDGSTGKFYCNIPGLYYFSYHITVYMKDVKVSLFKKDKAVLFTYDQYQEKNVDQASGSVLLHLEVGDQVWLQVYGDGDHNGLYADNVNDSTFTGFLLYHDTN
modifications: full-length
plasma adiponectin levels [1]: approximately 30 μg/ml
mitochondrial biogenesis (C2C12 myocytes; C2C12 myocytes expressing PGC-1α-R13 mutant): failed to further induce
amount of mitochondria as assessed by MitoTracker green (C2C12 myocytes; [5]): increased
mitochondrial DNA content (C2C12 myocytes; [5]): increased
PGC-1α acetylation (PGC-1α): decreased
CaMKI phosphorylation (CaMKI, HDAC5): rapid, robust, and transient increase
HDAC5 phosphorylation (CaMKI, HDAC5): increased
phosphorylation of CaMKI in skeletal muscle in vivo (CaMKI): significantly increased
whole-cell inward current responses (AdipoR1 [2]): observed
phosphorylation of AMPK α-subunits at Thr 172 (AMPK): increased
intracellular calcium ion concentration in soleus muscle (fura-2) (AdipoR1 [3]; control mice): increased
calcium responses of soleus muscle to adiponectin (AdipoR1 [3]; muscle-R1KO mice): almost completely disappeared
dose dependence of calcium response (AdipoR1 [4]): dose-dependent responses
intracellular calcium ion concentration (fura-2-based fluorescent imaging) (AdipoR1 [4]; adiponectin 30 μg/ml, 1 min): increased
